Experiments:
Details in all cases: one partner purified
[1] = target: T1, Junín virus nucleoprotein (N) of strain Candid#1, expressed from a plasmid (Junin mammarenavirus, Candid#1, UniProt F4ZL09, strain); assay: immunostaining of cells or tissue
T1 construct: also called N from Candid#; Candid#1N; source: Vero cells, transfected (Fugene), in fixed and permeabilized cells

[2] = target: T2, Junín virus nucleoprotein (N) of strain XJCl3, expressed from a plasmid (Junín virus (Junin mammarenavirus), …, UniProt F4ZL09, strain); assay: immunostaining of cells or tissue
T2 construct: also called N from XJCl3

[3] = target: T3, Junín virus nucleoprotein (N) in Candid#1-infected cells (Junin mammarenavirus, Candid#1, UniProt F4ZL09, strain); assay: co-IP
T3 construct: also called viral N; Candid#1N

Measured: binding result

B1: VHH 2.3 (VHH)
VHH: QVQLVESGGGLVQPGGSLRLSCAASGSIDSINAMAWYRQAPGKERELVAGISKNGIPWYLDSLKGRFNVSRDNAKNTLYLQIHNLKPEDAAMYYCASSSRTIATTTNEFDFWGQGTQVTVSS
notes: source: E. coli, periplasmic extract, purified (Ni-NTA); not shown: His6, C-terminal, kept
binds: all assays above

From PMC6065417, “Neutralization of Junín virus by single domain antibodies targeted against the nucleoprotein” (Scientific Reports, 2018)
